Here are results for nine molecules from patent publication US20210047373A1, “BETA BARREL POLYPEPTIDES AND METHODS FOR THEIR USE” (UNIVERSITY OF WASHINGTON, priority 2018, published 2021).

Marks after values point to notes of the source that are not given here.

For data set [1] the following is noted: previously reported value, cited from earlier work.
Data set [2] in a line: Fluorescence activation / brightness with DFHBI. It is filed as biochemical. The note with it: for Activation of DFHBI fluorescence: monomeric designs; for Fluorescence brightness, 100 nM DFHBI / Fluorescence brightness, 10 μM DFHBI: normalized 0 to 1 across all three chromophores, average ± SD of two protein concentrations; for Increase in fluorescence of the phenolate form of DFHBI: pH 7.36, versus mFAP2.2. The method, then:
(§1) Fluorescence binding assay. Protein-activated DFHBI fluorescence signals were measured in 96-well plate format (Corning 3650) on a Synergy neo2 plate reader (BioTek, Inc) with λex=450 nm or 460 nm and λem=500 nm or 510 nm. Binding reactions were performed at […] in PBS pH7.4 buffer. Protein concentrations were determined by 280 nm absorbance as described above. DFHBI (Lucerna, Inc) were resuspended in DMSO as instructed to make 100 mM stock and diluted in PBS to 0.5-10 μM. Approximate emission spectra were recorded for active designs from 490 to 600 nm.
(§2) Table 3A-C. Brightness and chromophore affinities of selected mFAP variants. Fluorescence brightness measurements at 10 μM (top table) and 100 nM (middle table) chromophore concentrations were normalized from 0 to 1 across all three chromophores (DFHBI, DFHBI-1T, and DFHO), and the normalized values for two protein concentrations tested for each chromophore at each chromophore concentration were averaged and standard deviations of the average computed. Reported values are the normalized averages and standard deviations of the means for each chromophore concentration and each chromophore. Reported relative densitometry values are the relative densitometry values normalized from 0 to 1 and represent how well each design expresses relative to one another in Lemo21(DE3) E. coli cultures. Thermodynamic dissociation constants (bottom table) are obtained by non-linear least squares fitting of chromophore titrations (n=1) to a single binding site isotherm, and values reported with the standard deviation of the fit. Where the obtained Kd values are below the protein concentration tested, the Kd and standard deviation of the fit are reported in parentheses. Values with “N/D” were not determined.

The nature of data set [3]: Photophysical characterization (absorbance, excitation, emission, extinction coefficient, quantum yield). In kind it is physicochemical.
A short description of data set [4]: Circular dichroism, thermal and GuHCl denaturation. The note with it: CD. It is filed as physicochemical. The method, then: Circular dichroism (CD). Purified protein samples were prepared at 0.5 mg/ml in 20 mM Tris buffer (150 mM NaCl, pH8.0) or PBS buffer (25 mM phosphate, 150 mM NaCl, pH7.4). Wavelength scans from 195 nm to 260 nm were recorded at 25 degrees Celsius, 75 degrees Celsius, 95 degrees Celsius and cooling back to 25 degrees Celsius. Thermal denaturation was monitored at 220 nm or 226 nm from 25 degrees Celsius to 95 degrees Celsius. Near-UV wavelength scan from 240 nm to 320 nm and tryptophan fluorescence emission were recorded in the absence and presence of 5M guanidinium chloride (GuHCl). Chemical denaturation in GuHCl was monitored by both tryptophan fluorescence and near-UV CD signal at 285 nm. The concentration of the GuHCl stock solution was measured with a refractometer (Spectronic Instruments, Inc). Far-UV CD experiments were performed on an AVIV model 420 CD spectrometer (Aviv Biomedical, Inc). Near-UV CD and tryptophan fluorescence experiments were performed on a Jasco J-1500 CD spectrometer (Jasco, Inc). Protein concentrations were determined by 280 nm absorbance with a NanoDrop™spectrophotometer (ThermoScientific, Inc). Melting temperatures were estimated by smoothing the sparse data with a Savitsky-Golay filter of order 3 and approximating the smoothed data with a cubic spline to compute derivatives. Reported Tm values are the inflection points of the melting curves.
In general terms: Circular dichroism is the unequal absorption of left and right circularly polarised light.

Data set [5] can be described thus: Fluorescence brightness with DFHO. In kind it is biochemical. To be noted: normalized 0 to 1 across all three chromophores; average ± SD of two protein concentrations. Here is the method: as §2
A short description of data set [6]: Chromophore titration, fit to single binding site isotherm: DFHBI-1T. To be noted: n=1 titration; ± SD of the fit; Table 3C. The method, then: as §2
Data set [7] is described as follows: Chromophore titration, fit to single binding site isotherm: DFHO. The note with it: n=1 titration; ± SD of the fit; Table 3C. The method, then:
as §2

The nature of data set [8]: Chromophore titration, fit to single binding site isotherm: DFHBI. To be noted: ± SD of the fit. The method, then:
as §1, §2

A short description of data set [9]: Fluorescence brightness with DFHBI-1T. It is filed as biochemical. To be noted: normalized 0 to 1 across all three chromophores; average ± SD of two protein concentrations. Here is the method:
as §2

Setting [10] is: n=1 titration, Table 3C, read-out: DFHBI Kd.

Consider `CC1=N/C(=C\c2cc(F)c(O)c(F)c2)C(=O)N1CC(F)(F)F` [DFHBI-1T], for which, in data set [1] (Table 4), the “Extinction Coefficient” value is recorded as 35,400^† M^−1 · cm^−1, the λabs is 422^† nm, the λem is reported as 495^† nm and the λex is on record as 426^† nm. The “Reported Quantum Yield” value in data set [1] is 0.00098^†.

B1: b11L5F: SEQ ID NO:25; b11 with a 5-residue fifth turn (protein)
chain: MCRAASLLPGTWQVTMTNEDGQTSQGQMHFQPRSPYTLDVKAQGTISDGRPISGKGKVTCKTPDTMDVDITYPSLGNMKVQGQVTLDSPTQFKFDVTTSDGSKVTGTLQRQE
modifications: (1)..(1) optionally absent
On to B1, for which the “Fluorescence activity in comparison with b11” value in [2] (100 μM protein+10 μM DFHBI) came to 5.2 fold. In addition, the “Increase of fluorescence intensity” value in [2] (fifth turn changed to a five-residue turn, versus b11) is given as “fourfold”.

B2: b11L5F.1: SEQ ID NO:26; b11L5F triple mutant 83I_95A_103L without disulfide (protein)
chain: MSRAASLLPGTWQVTMTNEDGQTSQGQMHFQPRSPYTLDVVAQGTISDGRPISGYGKVTVKTPDTMDVDITYPSLGNMKVQGQITLDSPTQFKFDATTSDGSKLTGTLQRQE
modifications: (1)..(1) optionally absent
In the case of B2, the “Higher DFHBI fluorescence” value in data set [2] (substitutions at V103, V95, V83 of b11L5F) was “tenfold”.

B3: b32: SEQ ID NO:12; monomeric design, activates DFHBI fluorescence (protein)
chain: MGQEVAQVLPGDWQVHMTNEDGQTSTGTVTFQPRSPYTFDVKFKGTMSDGRPITGKGKMTMKTPDTMDIDVTYSDGKKVTGKVTMKSPTQLDWDLTTSDGSKVTGTSHRQE
modifications: (1)..(1) optionally absent
Take B3: in [3], the “Absorption peak with DFHBI bound” value is reported as 450 nm and the “Emission peak with DFHBI bound” value is given as 510 nm. In addition, the “Activation of DFHBI fluorescence” value in data set [2] was “found to activate DFHBI fluorescence”. The Thermal stability entry in [4] was “undergo reversible thermal melting transitions”.

B4: b11L5F.2: SEQ ID NO:27; second round design from b11L5F.1 (protein)
chain: MNRAAQLLPGTWQVTMTNEDGQTSQGQMHFQPRSPYTLDIVAQGTISDGRPISGYGKVTVKTPDTMHVNITYPSLGNIKVQGQITLDSPTQFTWNSTTSDGKKLTGTLQRQE
modifications: (1)..(1) optionally absent
With B4, the “Increase of fluorescence, second round of design” value in data set [2] (versus b11L5F.1) is “approximately 1.4 fold”.

B5: b11: SEQ ID NO:4; monomeric design with disulfide bond, activates DFHBI fluorescence (protein)
chain: MCRAASLLPGTWQVTMTNEDGQTSQGQMHFQPRSPYTLDVKAQGTMSDGRPIQGKGKVTCKTPDTMDVDITYSDGKQVQGQVTLDSPTQFKFDVTTSDGSKVTGTLQRQE
modifications: (1)..(1) optionally absent
As to B5, in [3], the “Absorption peak with DFHBI bound” value is 450 nm and the “Emission peak with DFHBI bound” value came to 510 nm. Also, the “Activation of DFHBI fluorescence” value in data set [2] is “found to activate DFHBI fluorescence”. The Thermal stability result in [4] is “undergo reversible thermal melting transitions”.

B6: mFAP2.3: SEQ ID NO:58 (protein)
chain: MSRAAQLLPGTWQVTMTNEDGQTSQGQMHFQPRSPYTMDVVAQGTISDGRPIVGYGKVTVKTPDTLDVDITYPSLGNIKAQGQITMDSPTQFKFDATTKGENDFHGRLTGTLQRQE
modifications: (1)..(1) optionally absent
As to B6, in [5], the “Fluorescence brightness, 100 nM DFHO” value came to 0.02 ± 0.0 and the “Fluorescence brightness, 10 μM DFHO” value worked out at 0.01 ± 0.0. Moreover, in [6], the dissociation constant Kd turned out to be 1.58 ± 0.34 µM. Besides, in data set [2], the “Fluorescence brightness, 100 nM DFHBI” value was determined as 0.15 ± 0.0; the “Fluorescence brightness, 10 μM DFHBI” value is on record as 0.2 ± 0.03; the “Increase in fluorescence of the phenolate form of DFHBI” value was approximately 1.1 fold. The molecule also registered a Kd in data set [7] of 10.4 ± 3.59 µM. In addition, in data set [8] (setting [10]), the Kd was less than 0.5 µM. Besides, the dissociation constant Kd in data set [8] (obtained Kd below the protein concentration tested, read-out: DFHBI Kd, fit value in parentheses) is 0.146 µM. Besides, in [9], the “Fluorescence brightness, 100 nM DFHBI-1T” value came out at 0.52 ± 0.02 and the “Fluorescence brightness, 10 μM DFHBI-1T” value amounted to 0.67 ± 0.04.

B7: mFAP2.5: SEQ ID NO:60; mutations of mFAP2.3 and mFAP2.4 combined (protein)
chain: MSRAAQLLPGTWQVTMTNEDGQTSQGQWHFQPRSPYTMDIVAQGTISDGRPIVGYGKATVKTPDTLDVDITYPSLGNIKAQGQITMDSPTQFKWDATTKGENDFHGRLTGTLQRQE
modifications: (1)..(1) optionally absent
Turning to B7, in data set [5], the “Fluorescence brightness, 100 nM DFHO” value is given as 0.01 ± 0.0 and the “Fluorescence brightness, 10 μM DFHO” value was 0.0 ± 0.0. The dissociation constant Kd in data set [6] amounted to 52.5 ± 7.48 µM. For the same molecule, in data set [2], the “Fluorescence brightness, 100 nM DFHBI” value is 0.83 ± 0.02 and the “Fluorescence brightness, 10 μM DFHBI” value stood at 0.8 ± 0.03. Also, binding in data set [7] was put at a Kd of 34.2 ± 13.7 µM. The Kd in [8] (setting [10]) is 1.13 ± 0.09 µM. For the same molecule, in data set [9], the “Fluorescence brightness, 100 nM DFHBI-1T” value is on record as 0.01 ± 0.0 and the “Fluorescence brightness, 10 μM DFHBI-1T” value worked out at 0.01 ± 0.0.

B8: mFAP2.4: SEQ ID NO:59 (protein)
chain: MSRAAQLLPGTWQVTMTNEDGQTSQGQMHFQPRSPYTMDIVAQGTISDGRPIVGYGKATVKTPDTLDVDITYPSLGNIKAQGQITMDSPTQFKFDATTKGAGNFTGRLTGTLQRQE
modifications: (1)..(1) optionally absent
B8: in data set [5], the “Fluorescence brightness, 100 nM DFHO” value is given as 0.01 ± 0.0 and the “Fluorescence brightness, 10 μM DFHO” value is on record as 0.0 ± 0.0. In data set [6], this molecule came in with a dissociation constant Kd of 38.7 ± 5.71 µM. For the same molecule, in data set [2], the “Fluorescence brightness, 100 nM DFHBI” value is 0.69 ± 0.03; the “Fluorescence brightness, 10 μM DFHBI” value came out at 0.69 ± 0.06; the “Increase in fluorescence of the phenolate form of DFHBI” value is approximately 3.4 fold. The molecule also returned a dissociation constant Kd in data set [7] of 32.7 ± 14.2 µM. In addition, the Kd in [8] (setting [10]) was found to be 1.31 ± 0.1 µM. In data set [9], the “Fluorescence brightness, 100 nM DFHBI-1T” value turned out to be 0.01 ± 0.0 and the “Fluorescence brightness, 10 μM DFHBI-1T” value was found to be 0.01 ± 0.0.

For orientation: Kd means the equilibrium constant for the complex coming apart.
